Data: publication PMC5345068, “A Glycyrrhetinic Acid-Modified Curcumin Supramolecular Hydrogel for liver tumor targeting therapy” (Scientific Reports, 2017)
Where two headings read alike, the source gives them in different places.

Assays:
HepG2 cells [1] = experiment: cells; settings: Homo sapiens, HepG2, 48 h, read-out: IC50 HepG2 mean (Table S-1)
mouse NIH 3T3 cells [2] = experiment: cells; settings: NIH3T3, 48 h, read-out: IC50, mouse fibroblast 3T3 cells
[3] = water; cited from earlier work
From the text: Curcumin (Cur), a hydrophobic polyphenol compound, is derived from the rhizomes of Curcuma longa. Cur has a wide range of therapeutic properties, such as anti-inflammation[18], anti-oxidant[19], anti-mutagenic[20], and anticancer[21] with low or no intrinsic toxicity to healthy cells. […] Fig. S-6A). […] The minimum gelation ...

HepG2 cells [4] = settings: 48 h
[5] = solubility of pro-gelators in PBS
Method: (§1) We therefore tested the gelation ability of the obtained two compounds. […] We then used a rheometer to characterize the resulting hydrogels obtained at 2 h time point. […] We then investigated the fluorescence spectra of the precursors (GA-cur and Nap-cur) and the hydrogels (GA-gel and Nap-gel).
(§2) 3 mg of GA-Cur or Nap-Cur was dissolved in 0.25 mL phosphate buffer saline (PBS) buffer solution (pH = 7.4, adjusted by 1.5 equiv. of Na2CO3). 4equiv. of glutathione (GSH) in 0.05 mL of PBS buffer (pH = 7.4, adjusted by 3.6equiv. of Na2CO3) was added to the above solution.

[6] = gelation test with GSH and hydrogel stability; assay type: physicochemical; settings: PBS pH 7.4, disulfide reduction by GSH
Method: as §1, §2

[7] = critical micelle concentration (CMC); assay type: physicochemical; settings: Fig. S-7
From the text: Fig. S-7. The critical micelle concentration (CMC) of A) GA-cur and B) Nap-cur.
Fig. S-8. The LC-MS traces of the GA-Cur (mw=2398.78,1/ mw=1200.6) and the formed
Fig. S-9. The LC-MS traces of the Nap-Cur ([…]/ mw=1058.6) and the formed

mouse NIH 3T3 cells [8] = settings: read-out: IC50, mouse fibroblast 3T3 cells; MTT, 48 h
3T3 cells = experiment: cellular uptake, 3T3; settings: same experiment as HepG2: 25 μM, 4 h; Fig. S-15
Method: (§3) After being incubated for 24 h in 6-well plates at a density of 2.5 × 10^5 cells per-well, HepG2 cells were treated with 2 mL growth medium containing 25 μM of Cur, GA-Cur, Nap-Cur, or GA + GA-Cur, respectively. In GA + GA-Cur group, 50 μM of GA was used to pre-treat cells for 2 hours. HepG2 cells were then rinsed for three times with PBS following with a treatment with 25 μM of GA-Cur for another 4 hours. After 4 hours’ incubation, cells were washed for three times with PBS to remove excess compounds and 500 μL of DMSO was added to each well to dissolve compounds in cells. The solution were collected after being treated with sonication for 15 min. The amount of compounds in the cells was determined by a microplate reader excitated at 488 nm. The same experiments were performed with 3T3 cells.

HepG2 cells [9] = experiment: cellular uptake, HepG2; settings: 25 μM, 4 h, 6-well plates, 2.5 × 10^5 cells per well, DMSO lysis, microplate reader excitation 488 nm
Method: as §3

IC50 (HepG2 cells [1]) [µM] | IC50 (HepG2 cells [4]) [µM] | SMILES | IC50 (mouse NIH 3T3 cells [2]) [µM] | aqueous solubility [3] | well solubilized in phosphate buffer saline at a concentration of [5] [mg/mL] | minimum gelation concentration [6] | critical micelle concentration (CMC) [7] | IC50 (HepG2 cells [4]; read-out: IC50 against HepG2, MTT) [µM] | IC50 (mouse NIH 3T3 cells [8]) [µM] | well solubilized in phosphate buffer saline at a concentration of ([5]; PBS pH = 7.4, 10 mg/mL = 1 wt%, optical image) [mg/mL] | intra-cellular concentration of Cur, 3T3 (3T3 cells) [ng/well] | intra-cellular concentration of Cur, HepG2 (HepG2 cells [9]) [ng/well]
26.5 | – | COc1cc(/C=C/C(=O)CC(=O)/C=C/c2ccc(O)c(OC)c2)ccc1O [Cur, Curcumin] | 28 | ≈ 11 ng/ml | – | – | – | – | – | – | – | –
– | 10.7 | COc1cc(/C=C/C(=O)CC(=O)/C=C/c2ccc(OC(=O)CCCC(=O)NCCCC[C@H](NC(=O)[C@H](Cc3ccc(O)cc3)NC(=O)[C@H](Cc3ccccc3)NC(=O)[C@H](Cc3ccccc3)NC(=O)CNC(=O)[C@@]3(C)CC[C@]4(C)CC[C@]5(C)C(=CC(=O)[C@@H]6[C@@]7(C)CC[C@H](O)C(C)(C)[C@@H]7CC[C@]65C)[C@@H]4C3)C(=O)N[C@@H](CCC(=O)O)C(=O)NCCSSCCNC(=O)CCC(=O)N[C@@H](CCC(=O)O)C(=O)N[C@@H](CCCNC(=N)N)C(=O)NCC(=O)N[C@@H](CC(=O)O)C(=O)O)c(OC)c2)ccc1O [GA-Cur, GA–GFFYK(Cur)E-ss-ERGD] | – | – | ≥ 10 | about 0.75 wt% | about 1105 μg/mL | – | – | – | – | –
– | – | COc1cc(/C=C/C(=O)CC(=O)/C=C/c2ccc(OC(=O)CCCC(=O)NCCCC[C@H](NC(=O)[C@H](Cc3ccc(O)cc3)NC(=O)[C@H](Cc3ccccc3)NC(=O)[C@H](Cc3ccccc3)NC(=O)CNC(=O)Cc3ccc4ccccc4c3)C(=O)N[C@@H](CCC(=O)O)C(=O)NCCSSCCNC(=O)CCC(=O)N[C@@H](CCC(=O)O)C(=O)N[C@@H](CCCNC(=N)N)C(=O)NCC(=O)N[C@@H](CC(=O)O)C(=O)O)c(OC)c2)ccc1O [Nap-Cur, Nap–GFFYK(Cur)E-ss-ERGD] | – | – | – | – | ~1349 µg/mL | 29.7 | 28.7 | ≥ 10 | 641 | 670
